Test results as given in PMC8459933.

How the values were obtained:
[1] = target: PltB subunit of typhoid toxin (Salmonella enterica serovar Typhi); experiment: cryo-EM structure
[2] = target: tagless PltB pentamer (Salmonella enterica serovar Typhi); experiment: SEC

Substance	stoichiometry N [1]	stoichiometry N [2]
PltB subunit of typhoid toxin (natural protein)	5	
tagless PltB pentamer (natural protein)		5
